Data on two substances can be found in paper PMC6862323, “Substitution of Arginine 120 in Human D-Amino Acid Oxidase Favors FAD-Binding and Nuclear Mistargeting” (Frontiers in Molecular Biosciences, 2019).

In the series the test system is C[C@@H](N)C(=O)O. The experiment in a line: purified protein, by the assay type. The conditions noted are these: other: air saturation, 25°C, pH 8.5, 0.2 mM FAD.

Sequence of R120E hDAAO variant (Homo sapiens; R120E) (chain, as listed by the source R120E R120E): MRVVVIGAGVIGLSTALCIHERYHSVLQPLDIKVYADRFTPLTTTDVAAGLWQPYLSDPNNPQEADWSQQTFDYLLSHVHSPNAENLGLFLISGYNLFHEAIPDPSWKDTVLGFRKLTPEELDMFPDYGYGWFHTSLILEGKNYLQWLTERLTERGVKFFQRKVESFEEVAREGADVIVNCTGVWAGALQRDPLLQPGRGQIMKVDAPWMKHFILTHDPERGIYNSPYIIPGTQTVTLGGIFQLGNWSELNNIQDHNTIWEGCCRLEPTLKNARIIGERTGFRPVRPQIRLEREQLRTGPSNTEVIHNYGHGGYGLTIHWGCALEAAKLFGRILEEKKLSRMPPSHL
Sequence of R120L hDAAO variant (Homo sapiens; R120L) (chain, as listed by the source R120L R120L): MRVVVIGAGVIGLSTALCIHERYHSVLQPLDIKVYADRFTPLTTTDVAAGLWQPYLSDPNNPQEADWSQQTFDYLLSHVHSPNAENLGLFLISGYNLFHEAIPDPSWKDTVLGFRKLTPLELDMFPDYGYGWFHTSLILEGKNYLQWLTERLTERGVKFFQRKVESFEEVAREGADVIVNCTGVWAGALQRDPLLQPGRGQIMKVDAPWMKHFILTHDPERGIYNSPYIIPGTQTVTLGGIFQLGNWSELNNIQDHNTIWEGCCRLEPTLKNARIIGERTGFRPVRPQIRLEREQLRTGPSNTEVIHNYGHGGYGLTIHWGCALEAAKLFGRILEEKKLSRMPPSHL

Broadly, the Km is the substrate concentration at which the rate is half of its maximum. By kcat is commonly meant the maximal rate divided by the concentration of active sites. As usually defined, the kcat/Km is the turnover number divided by the Michaelis constant. Regarding “R120E hDAAO variant (Homo sapiens; R120E)”, the Km came out at 1400 ± 100 µM, the turnover number (kcat) is 12.6 s⁻¹ and the kcat/Km was 8900 M⁻¹ s⁻¹.

Turning to “R120L hDAAO variant (Homo sapiens; R120L)”, the Km turned out to be 2000 ± 300 µM, the kcat turned out to be 17.3 s⁻¹ and the kcat/Km came to 8500 M⁻¹ s⁻¹.
